Biological target: HP1α (mouse) (UniProt Q61686)
Assay: BLI
Settings: K+, BLI: 100 mM KCl, 50 mM NaCl, 20 mM Na phosphate, pH 8 (G4) or pH 7 (i-motif, dsDNA), room temp, 500 nM oligo or titration, EMSA: 50 mM Tris-HCl pH 7.5, 100 mM …

Chain of HP1α (mouse) (Q61686 whole entry): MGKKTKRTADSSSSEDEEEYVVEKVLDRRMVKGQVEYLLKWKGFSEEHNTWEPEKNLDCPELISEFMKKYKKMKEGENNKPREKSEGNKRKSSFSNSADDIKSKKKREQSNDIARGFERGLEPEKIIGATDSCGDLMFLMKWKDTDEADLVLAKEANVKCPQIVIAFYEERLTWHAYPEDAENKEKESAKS

TERRA22
Kd: 940 nM

TERRA45
Kd (Fig S2 gives error 0.4): 74.4 nM

TERRA96
Kd: 2.5 nM
